Results taken from patent US20250340630A1 (SICHUAN KELUN BIOTECH BIOPHARMACEUTICAL, published 2025).
Like-named read-outs stand apart in the source and are kept apart here.

How the values were obtained:
human Claudin18.2 [1] = biological target: T1, human Claudin18.2 (human, UniProt P56856-2 1-261); assay: cell-based or functional assay
human Claudin18.2 [2] = biological target: T1, human Claudin18.2; assay: cellular ELISA on fixed L929-Claudin 18.2 cells
Procedure: (§1) Human Claudin18.2 is a four transmembrane protein and has a complex structure. Cellular ELISA was thus carried out to maintain the structure of Claudin18.2. […] The cells were resuspended and adjusted to 2×10⁵/mL and 100 μL of the resuspension was plated into 96 well plate and incubated overnight at 37° C. The next day, the media was removed, and the plate was washed with PBS once. 100 μL/well 4% formaldehyde was added to the plate. After 30 min of incubation at room temperature, formaldehyde was removed, followed by washing twice with PBS. Blocking buffer (PBS containing 2% BSA) was then added to the plate at 100 μL/well, and incubated at 37° C. for 2 h. After removal of blocking buffer, 100 μL/well of serially diluted antibodies (starting from 1 μM, with 4-fold dilution, for a total of 11 concentrations) were added to the corresponding wells, which were incubated at 37° C. for 2h afterwards. The plate was washed with 250 μL PBST for 5 times, and was allowed to stand for 2 min each time. […] The plate was incubated at 37° C. for 1 h and washed with 250 μL PBST 6 times, wherein the plate was allowed to stand for 2 min each time. 100 μL/well of TMB solution (Thermo, 34029) was added. […] The absorbance at 450 nm was read on a plate reader (MD, SpectraMax M2) and the results were subjected to curve fitting by Graphpad Prism.

human Claudin18.2 [3] = biological target: T1, human Claudin18.2; assay: cell-based or functional assay; remark: listed apart in the source
human Claudin18.2 [4] = biological target: T1, human Claudin18.2; assay: cell-based or functional assay; remark: listed apart in the source
human Claudin18.2 [5] = biological target: T1, human Claudin18.2; assay: cellular ELISA on fixed L929-Claudin 18.2 cells; remark: listed apart in the source
Procedure: as §1

human Claudin18.2 [6] = biological target: T1, human Claudin18.2; assay: cellular ELISA on NUGC-4 cells (endogenous human Claudin18.2)
Procedure: The cells were resuspended and adjusted to 2×10⁵/mL and 100 μL of the resuspension was plated into 96 well plate and incubated overnight at 37° C. The next day, the media was removed, and the plate was washed with PBS once. 100 μL/well 4% formaldehyde was added to the plate. After 30 min of incubation at room temperature, formaldehyde was removed, followed by washing twice with PBS. Blocking buffer (PBS containing 2% BSA) was then added to the plate at 100 μL/well, and incubated at 37° C. for 2 h. After removal of blocking buffer, 100 μL/well of serially diluted antibodies (starting from 1 μM, with 4-fold dilution, for a total of 11 concentrations) were added to the corresponding wells, which were incubated at 37° C. for 2h afterwards. The plate was washed with 250 μL PBST for 5 times, and was allowed to stand for 2 min each time. […] The plate was incubated at 37° C. for 1 h and washed with 250 μL PBST 6 times, wherein the plate was allowed to stand for 2 min each time. 100 μL/well of TMB solution (Thermo, 34029) was added. The reactions were incubated at 37° C. for 20 min and stopped with 50 μL 2 mol/L H₂SO₄. The absorbance at 450 nm was read on a plate reader (MD, SpectraMax M2) and the results were subjected to curve fitting by Graphpad Prism.

human Claudin18.2 [7] = biological target: T1, human Claudin18.2; assay: flow cytometry on HEK293T-Claudin 18.2 cells
Procedure: HEK293T-Claudin 18.2 cells were detached and centrifuged, followed by washing for twice with PBS. And then the cells were resuspended in PBS containing 1% BSA and were plated into 96-well tip bottom plate at 300000 cells per well in a volume of 50 μl for 20 wells in total. […] Human IgG was served as negative control. The reactions were mixed well and incubated for 1 h at 4° C. in the dark. Following by three times of washing with PBS, the FITC-labelled anti-human Fc secondary antibody (Biolegend, 409322) was added and incubated for 0.5h in the dark. Detection was performed by flow cytometry (Beckman, Cytoflex) after washing for three times with PBS.

human Claudin18.2 [8] = biological target: T1, human Claudin18.2; assay: cell-based or functional assay; remark: listed apart in the source
human Claudin18.2 [9] = biological target: T1, human Claudin18.2; assay: flow cytometry on Ba/F3-Claudin18.2 cells
human Claudin18.1 [10] = biological target: T2, human Claudin18.1 (human, UniProt P56856 1-261); assay: flow cytometry on Ba/F3-Claudin18.1 cells
T2 construct: whole, on cells; Presented on transfected cells; also called CLDN18.1
Procedure: (§2) The affinity of the candidates to Claudin18.2 was measured using FACS. […] Ba/F3-Claudin18.1 and Ba/F3-Claudin18.2 cells were incubated with the purified mouse antibodies at various concentrations on ice for 30 min and mouse IgG was used as negative control (Thermo Fisher, Cat: 31903), followed by washing with FACS buffer (PBS+2% FBS) twice.

human Claudin18.2 [11] = biological target: T1, human Claudin18.2; assay: flow cytometry on Ba/F3-Claudin18.2 cells, purified mouse antibody
Procedure: as §2

human Claudin18.2 [12] = biological target: T1, human Claudin18.2; assay: cellular ELISA on fixed L929-Claudin 18.2 cells; remark: listed apart in the source
Procedure: Human Claudin18.2 is a four transmembrane protein and has a complex structure. Cellular ELISA was thus carried out to maintain the structure of Claudin18.2. […] The cells were resuspended and adjusted to 2×10⁵/mL and 100 μL of the resuspension was plated into 96 well plate and incubated overnight at 37° C. The next day, the media was removed, and the plate was washed with PBS once. 100 μL/well 4% formaldehyde was added to the plate. After 30 min of incubation at room temperature, formaldehyde was removed, followed by washing twice with PBS. Blocking buffer (PBS containing 2% BSA) was then added to the plate at 100 μL/well, and incubated at 37° C. for 2 h. After removal of blocking buffer, 100 μL/well of serially diluted antibodies (starting from 1 μM, with 4-fold dilution, for a total of 11 concentrations) were added to the corresponding wells, which were incubated at 37° C. for 2h afterwards. The plate was washed with 250 μL PBST for 5 times, and was allowed to stand for 2 min each time. […] The plate was incubated at 37° C. for 1 h and washed with 250 μL PBST 6 times, wherein the plate was allowed to stand for 2 min each time. 100 μL/well of TMB solution (Thermo, 34029) was added. The reactions were incubated at 37° C. for 20 min and stopped with 50 μL 2 mol/L H₂SO₄. The absorbance at 450 nm was read on a plate reader (MD, SpectraMax M2) and the results were subjected to curve fitting by Graphpad Prism.

human Claudin18.1 [13] = biological target: T2, human Claudin18.1; assay: flow cytometry, HEK293T-human Claudin 18.1 cells compared with HEK293T cells
Procedure: The specificity of candidate antibodies was detected by FACS. […] After washing twice with PBS, the cells were resuspended with PBS containing 1% BSA. 300,000 cells for each cell line were added with the candidate antibodies at a final concentration of 1000 nM, mixed well, and incubated for 1 h at 4° C., protected from light. Then the cells were washed for three times with PBS and FITC-labeled anti-human Fc secondary antibody (BioLegend, 409322) was added, followed by 0.5h of incubation at 4° C. in the dark. Detection was performed by flow cytometry (Beckman, Cytoflex) after washing with PBS for three times.

human Claudin18.2 [14] = biological target: T1, human Claudin18.2; assay: cell-based or functional assay; remark: listed apart in the source
human Claudin18.2 [15] = biological target: T1, human Claudin18.2; assay: flow cytometry (IntelliCyt) on Ba/F3-Claudin18.2 cells
Text: In order to evaluate the anti-Claudin18.2 humanized antibodies, codon optimized cDNAs of the heavy chains and the light chains of the candidate humanized antibodies from Example 6 were synthesized and ligated into pcDNA3.4 (by Nanjing Genscript Biotech Corporation). Expi293F cells (purchased from Thermo Incorporation) were co-transfected with pcDNA3.4 coding the heavy chain and light chain of each antibody. The antibodies were purified from the supernatant using protein A (MabSelect SuRe, GE). The affinity of the humanized antibodies to Claudin18.2 was determined using Ba/F3-Claudin18.2 cells which over-expressed human Claudin18.2. Ba/F3-Claudin18.2 cells (60000 in 10 ul buffer) were incubated with purified humanized antibodies on ice for 30 min, followed by washing with buffer (PBS+2% FBS) twice and addition of Alexa647-labeled goat-anti-human IgG Fc antibody (1:500 dilution). The cells were incubated on ice for another 30 min and analyzed by IntelliCyt.

| Binder | CDC EC50 on HEK293T-Claudin 18.2 cells (guinea pig serum, CellTiter-Glo) (human Claudin18.2 [1]) [µg/mL] | EC50 (human Claudin18.2 [2]) [nM] | ADCC EC50, Ba/F3-Claudin18.2 target cells, NK-92MI_mCD16 effectors (human Claudin18.2 [3]) [µg/mL] | ADCC Max killing rate %, Ba/F3-Claudin18.2 target cells (human Claudin18.2 [3]) [%] | ADCC EC50 on HEK293T-Claudin 18.2 cells (NK92MI-CD16a, LDH) (human Claudin18.2 [4]) [µg/mL] | ADCC EC50 on KATOIII-Claudin 18.2 cells (NK92MI-CD16a, LDH) (human Claudin18.2 [4]) [µg/mL] | ADCC EC50 on L929-Claudin 18.2 cells (NK92MI-CD16a, LDH) (human Claudin18.2 [4]) [µg/mL] | ADCC EC50 on NUGC-4 cells (NK92MI-CD16a, LDH) (human Claudin18.2 [4]) [µg/mL] | EC50 (human Claudin18.2 [5]) [nM] | EC50 (human Claudin18.2 [6]) [nM] | EC50 (human Claudin18.2 [7]) [nM] | ADCC EC50 on HEK293T-Claudin 18.2 cells (NK92MI-CD16a, LDH) (human Claudin18.2 [8]) [µg/mL] | EC50 (human Claudin18.2 [12]) [nM] | Max Signal Value (OD450) (human Claudin18.2 [12]) | binding result (human Claudin18.1 [13]) | other results |
| --- | --- | --- | --- | --- | --- | --- | --- | --- | --- | --- | --- | --- | --- | --- | --- | --- |
| IMAB362 (antibody, V domains shown) VH: QVQLQQPGAELVRPGASVKLSCKASGYTFTSYWINWVKQRPGQGLEWIGNIYPSDSYTNYNQKFKDKATLTVDKSSSTAYMQLSSPTSEDSAVYYCTRSWRGNSFDYWGQGTTLTVSS VL: DIVMTQSPSSLTVTAGEKVTMSCKSSQSLLNSGNQKNYLTWYQQKPGQPPKLLIYWASTRESGVPDRFTGSGSGTDFTLTISSVQAEDLAVYYCQNDYSYPFTFGSGTKLEIKR | 3.32 | 0.18 | 0.351 | 54.2 | 0.0336 | 0.0101 | 0.0781 | 1.22 | 0.15 | ~664 | 8.22 | 0.0577 |  |  |  | EC50 (human Claudin18.2 [9]): 18 nM |
| mouse antibody 2C6.9 (antibody, V domains shown, Purified from hybridoma; also called 2C6.9.2) VH: QVQLKESGPGLVAPSQSLSITCTVSGFSLTRYGVSWVRQPPGKGLEWLGVIWGDGNTNFHSFLKSRLSISKDSSKSQVFLKLNSLQTDDTATYYCARVNFGNALDYWGQGTSVTVSS VL: DIVMTQSPSSLTVTAGEEVTMSCKSSQSLLNSGNQKNYLTWYQQKPGQPPKLLIYWASTRDSGVPDRFTGSGSGTDFTLTISSVQSEDLAVYYCQNDFIFPLTFGAGTKLELK |  |  |  |  |  |  |  |  |  |  |  |  |  |  |  | binding result (human Claudin18.1 [10]): no binding; EC50 (human Claudin18.2 [11]): 10.6 nM; Max MFI (human Claudin18.2 [11]): 6.11e+06 MFI |
| humanized antibody 1E9.2-hz11 (antibody, human IgG1, kappa, V domains shown, human IgG1 / kappa) VH: EVQLVESGGGLVKPGGSLRLSCAASGFSFSNSAMSWVRQAPGKGLEWVSTISSGDSYTYYADSVKGRFTISRDNAKNSLYLQMNSLRAEDTAVYYCARQGYGNALDYWGQGTLVTVSS VL: DIVMTQSPDSLAVSLGERATINCKSSQSLLNSGNQKNYLTWYQQKPGQPPKLLIYWSSTRESGVPDRFSGSGSGTDFTLTISSLQAEDFAVYYCQNDYYYPLTFGGGTKVEIKR |  | 0.1 | 0.041 | 60.2 | 0.0528 | 0.00359 | 0.00239 | 0.134 |  | 0.413 |  |  | 0.09 | 0.8 | no binding (tested: 1000 nM) | CDC activity on HEK293T-Claudin 18.2 cells, fold against IMAB362 (human Claudin18.2 [14]): 3.5 fold; Max MFI (human Claudin18.2 [15]): 1.13e+07 MFI |
| humanized antibody 2C6.9-hz21 (antibody, human IgG1, kappa, V domains shown, human IgG1 / kappa; also called 2C6.9.2hz21) VH: QVQLQESGPGLVKPSETLSLTCTVSGFSLTRYGVSWIRQPPGKGLEWIGVIWGEGNTNYNPSLKSRVTISKDSSKSQVSLKLSSVTAADTAVYYCARVNFGNALDYWGQGTLVTVSS VL: DIVMTQSPDSLAVSLGERATINCKSSQSLLNSGNQKNYLTWYQQKPGQPPKLLIYWASTRDSGVPDRFSGSGSGTDFTLTISSLQAEDVAVYYCQNDFIFPLTFGGGTKVEIKR | 1.36 |  |  |  |  |  |  |  | 0.12 |  | 5.77 | 0.0677 | 0.18 | 0.8 | no binding (tested: 1000 nM) |  |
| humanized antibody 2C6.9-hz11 (antibody, human IgG1, kappa, V domains shown, Human IgG1 / kappa constant regions; also called 2C6.9.2hz11) VH: QVQLQESGPGLVKPSETLSLTCTVSGFSLTRYGVSWIRQPPGKGLEWIGVIWGDGNTNYNPSLKSRVTISKDSSKSQVSLKLSSVTAADTAVYYCARVNFGNALDYWGQGTLVTVSS VL: DIVMTQSPDSLAVSLGERATINCKSSQSLLNSGNQKNYLTWYQQKPGQPPKLLIYWASTRDSGVPDRFSGSGSGTDFTLTISSLQAEDVAVYYCQNDFIFPLTFGGGTKVEIKR |  |  |  |  |  |  |  |  |  |  |  |  | 0.16 | 0.8 |  |  |
